Values of other authors, collected in publication PMC7226498.

Target: p53 OD (Homo sapiens) (UniProt P04637)

Sequence of p53 OD (P04637 325-356): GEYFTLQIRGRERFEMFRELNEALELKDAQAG

Kd: 1 nM
Substance: p53 OD (from UniProt P04637)
